Results: patent publication US11351270B2, “Junctophilin-2 fragments and uses therefor” (University of Iowa Research Foundation, priority 2016, dated 2022)

What was measured:
[1] = system: promoters of Myc, KLF6, TGFβR1 and NFKBIA; test: Promoter luciferase reporter assay; assay type: cell-based; settings: co-expression; vs empty vector control
Description: Firefly and Renilla reporter plasmids and JP2NT variants were co-transfected into HEK293 cells. The protein of the cells was harvested 48 hours after transfection. Promega dual luciferase system was used to evaluate the luciferase activity.
To further test whether JP2NT regulates transcription of these genes, luciferase reporters controlled by promoters of Myc, KLF6, TGFβR1 and NFKBIA were constructed.

[2] = system: cultured adult murine cardiomyocytes; test: Affymetrix Genechip analysis of cultured cardiomyocytes; assay type: cell-based, mouse
Description: Genecarrior-1 (Epoch Lab) was used to transfect plasmids into HEK293T cells. Isolation and culture of cardiomyocytes were performed as described previously (Guo et al., 2015). Adenoviruses were applied at a multiplicity of infection (MOI) of about 100, which results in transfection of almost all cells as confirmed by immunostaining of eptiope tags.
Microarray assay was performed by Affymetrix GeneChip® Mouse Genome 430 2.0 according to the standard procedure of cRNA preparation and Genechip hybridization. The R package limma (version 3.22.7) (Ritchie et al., 2015) was used for processing microarray data and identifying differentially expressed genes (the cutoff of significance was p value<0.01). David (Huang et al., 2009) was used for gene enrichment (GO) analysis. Ingenuity pathway analysis (IPA, Qiagen) was used for pathway analysis.

[3] = system: chromatin; test: Biochemical fractionation for chromatin association; assay type: cell-based; settings: MNASE digestion, Western blot
From the text: FIGS. 10A-D. JP2NT contains a NLS and a chromatin/DNA-binding domain. A-B) A conserved NLS in JP2 N-terminus is essential for nuclear accumulation of JP2NT. a-c, Subcellular localization of eGFP and eGFP-fused JP2 and eGFP-JP2NT in 293T cells. Full length JP2 localizes on both plasma membrane and ER network (b). […] C-D) JP2NT associates with chromatin. a, Schematic of the subcellular fractionation approach (adapted from Wisoka et al 2001). b, Subnuclear distribution of JP2NT and fragments/mutants. JP2NT is present in both soluble nuclear (S3) and chromatin fractions (S4). Deletion of the MORN domains (JP2NT JP2NT^ΔMORNs) had no effect on subnuclear distribution of JP2NT. However, the amount of chromatin-associated JP2NT was decreased by deletion of the bNLS alone (JP2NT^ΔMORNs/ΔbNLS), deletion of the ARR alone (JP2 JP2NT^ΔMORNs/ΔARR), or deletion of both the bNLS and ARR (JP2^ΔMORNs/ΔbNLS/ΔARR and JP2NT^ΔbNLS/ΔARR). Histone H3: chromatin marker.
Ultracentrifuge based protein fractionation was performed following the protocol described previously (van Berlo et al., 2013). For some experiments, the soluble nuclear fraction (Nu-S) was separately extracted using nuclear extraction buffer (NEB) from the Tissue subcellular fractionation kit of Thermo Scientific, and the remaining insoluble fraction was subjected to MNASE digestion for chromatin fraction extraction. […]

[4] = system: JP2-KD cardiomyocytes; test: Confocal Ca2+ imaging in JP2-KD cardiomyocytes after adenoviral expression; assay type: cell-based, mouse; settings: 1-Hz field stimulation
From the text: Specifically, conditional shJP2 mice (provided by Dr. Wehrens) (van Oort et al., 2011) were crossed with mice carrying the cardiac-specific α-myosin heavy chain promoter upstream of Cre (% MHC-Cre, also FVB-Tg(Myh6-cre)2182Mds/J, The Jackson Laboratory). The shJP2 mice were maintained on a C57BL/6 background for more than 10 generations. The αMHC-Cre mice were maintained on an FVB background. PCR was used to genotype the offspring. The near complete depletion of JP2 protein in JP2-KD (αMHC-Cre X shJP2) hearts has been reported recently (Chen et al., 2013). JP2-KD mice were sacrificed at 2 months of age for isolation and culture of ventricular cardiomyocytes as described below.
Genecarrior-1 (Epoch Lab) was used to transfect plasmids into HEK293T cells. Isolation and culture of cardiomyocytes were performed as described previously (Guo et al., 2012). […] Ca^2+ Imaging experiments were performed 40 hours after adenoviral infection.
Cells were loaded with Rhod-2AM at 37° C. for 20 minutes, followed by washing with Tyrode's solution at room temperature for 15 minutes before Ca^2+ imaging. Confocal images were acquired using a ×63, 1.3 numerical aperture oil immersion objective mounted on a Zeiss LSM 510 confocal microscope. Confocal line scanning was used to record Ca^2+ signals. Steady-state Ca^2+ transients were recorded in Tyrode's solution containing 1.8 mM Ca^2+ under field stimulation of 1 Hz. At least five steady-state transients for each cell were analyzed and averaged to represent Ca^2+ signals of the cell. Ca^2+ imaging data were analyzed by using a home-complied software, CaTeasy, which is coded in MATLAB 2013a (Mathworks). Briefly, the program normalizes Ca^2+ transient images on a column-by-column basis (512 columns/image). The characteristic parameters of normalized transients were detected automatically. The firing time of every scanning pixel was detected column by column on the basis of the maximum local variability of pixel intensity. The profile of the point-to-point firing time was indicated by a red line overlapping on the Ca^2+ image. Index of desynchronization, defined by the mean absolute deviation of firing time of each scanning pixel (with every 8 pixels binned), was used to evaluate the dyssynchrony of Ca^2+ transients. This automated software for calcium transient analysis is available upon request.

B1: JP2NT: shorter form of Junctophilin-2 including the first 565 amino acids of N-terminus of JP2 (protein, UniProt Q9BR39 1-565, looked up, fragment)
chain: MSGGRFDFDDGGAYCGGWEGGKAHGHGLCTGPKGQGEYSGSWNFGFEVAGVYTWPSGNTFEGYWSQGKRHGLGIETKGRWLYKGEWTHGFKGRYGIRQSSSSGAKYEGTWNNGLQDGYGTETYADGGTYQGQFTNGMRHGYGVRQSVPYGMAVVVRSPLRTSLSSLRSEHSNGTVAPDSPASPASDGPALPSPAIPRGGFALSLLANAEAAARAPKGGGLFQRGALLGKLRRAESRTSVGSQRSRVSFLKSDLSSGASDAASTASLGEAAEGADEAAPFEADIDATTTETYMGEWKNDKRSGFGVSERSSGLRYEGEWLDNLRHGYGCTTLPDGHREEGKYRHNVLVKDTKRRMLQLKSNKVRQKVEHSVEGAQRAAAIARQKAEIAASRTSHAKAKAEAAEQAALAANQESNIARTLARELAPDFYQPGPEYQKRRLLQEILENSESLLEPPDRGAGAAGLPQPPRESPQLHERETPRPEGGSPSPAGTPPQPKRPRPGVSKDGLLSPGAWNGEPSGEGSRSVTPSEGAGRRSPARPATERMAIEALQAPPAPSREPEVALYQG
modifications: GST or adenoviral forms
notes: shorter form of Junctophilin-2 including the first 565 amino acids of N-terminus of JP2
- promoter activity (firefly luciferase) [1]: significantly attenuated
- differentially expressed genes mapped to genomic loci bound in ChIP-seq [2]: about 74%
- ERK/MAPK, NF-κB, TGF-β and integrin signaling pathways (Ingenuity Pathway Analysis) ([2]; IPA of differentially expressed genes): predicted to be inhibited
- significantly induced known genes (p<0.01) ([2]; vs Ad-Empty control): 574 genes
- significantly repressed known genes (p<0.01) ([2]; vs Ad-Empty control): 1996 genes
- association with chromatin (insoluble nuclear fraction) [3]: detected in both soluble (S3) and chromatin containing insoluble (P4) nuclear fractions
- restoration of Ca2+ transients [4]: failed to restore
